The target in this experiment is T1, recombinant hLAG-3 (lymphocyte activating 3) (human, UniProt P18627 23-450).
T1 construct: Bought recombinant protein; source: bought: ABclonal Technology
T1 sequence (looked up): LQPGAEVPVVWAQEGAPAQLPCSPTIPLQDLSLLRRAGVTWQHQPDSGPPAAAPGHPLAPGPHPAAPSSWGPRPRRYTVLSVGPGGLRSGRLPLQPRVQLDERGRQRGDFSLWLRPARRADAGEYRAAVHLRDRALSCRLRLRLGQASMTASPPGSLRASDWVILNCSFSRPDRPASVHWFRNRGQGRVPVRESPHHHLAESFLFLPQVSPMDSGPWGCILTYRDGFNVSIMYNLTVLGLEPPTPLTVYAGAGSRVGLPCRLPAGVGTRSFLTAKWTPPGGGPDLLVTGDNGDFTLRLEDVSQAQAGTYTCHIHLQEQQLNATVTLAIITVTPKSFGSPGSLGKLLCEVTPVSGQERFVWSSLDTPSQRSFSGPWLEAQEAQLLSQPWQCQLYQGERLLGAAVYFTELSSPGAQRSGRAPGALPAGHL
As to the kind of experiment: ELISA; recombinant hLAG-3 (1 μg/mL) coated on ELISA microwells; different amounts of recombinant hFGL1 incubated for 1 h; detected with HRP-conjugated anti-hFGL1 antibody, OD 450 nm. Particulars: both partners purified.

B1: recombinant hFGL1 (fibrinogen-like protein 1) (ligand, human, UniProt Q08830 23-312, looked up)
chain: LEDCAQEQMRLRAQVRLLETRVKQQQVKIKQLLQENEVQFLDKGDENTVIDLGSKRQYADCSEIFNDGYKLSGFYKIKPLQSPAEFSVYCDMSDGGGWTVIQRRSDGSENFNRGWKDYENGFGNFVQKHGEYWLGNKNLHFLTTQEDYTLKIDLADFEKNSRYAQYKNFKVGDEKNFYELNIGEYSGTAGDSLAGNFHPEVQWWASHQRMKFSTWDRDHDNYEGNCAEEDQSGWWFNRCHSANLNGVYYSGPYTAKTDNGIVWYTWHGWWYSLKSVVMKIRPNDFIPNVI
notes: fibrinogen-like protein 1 (FGL1), human, recombinant; Bought recombinant protein; also called HFREP1; source: bought: ABclonal Technology
Regarding B1, the binding result is on record as “binds”.

(Values after publication PMC10593839, “The liver microenvironment orchestrates FGL1-mediated immune escape and progression of metastatic colorectal cancer” (Nature Communications, 2023).)
